16 molecules from patent publication US20250019427A1 can be followed below.

The target in experiment [1] is T1, Human GDF15 Fc (human) (UniProt Q99988).
T1 sequence (chain, biotinylated (EZ-Link Sulfo-NHS-Biotinylation Kit) where printed as biotinylated): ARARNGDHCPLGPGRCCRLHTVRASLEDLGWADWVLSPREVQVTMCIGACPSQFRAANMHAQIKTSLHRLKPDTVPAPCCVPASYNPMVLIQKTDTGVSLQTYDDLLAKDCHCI
Kind of experiment: Octet BLI, IgG on tip, avid. On the technique in general: BLI is a label-free optical method that tracks binding on a fibre tip over time.

The target in experiment [2] is T1, Human GDF15 Fc (human). Kind of experiment: Octet BLI, Fab monovalent.
Experiment [3] has as its target T1, Human GDF15 Fc (human). The experiment in a line: SPR Biacore, Fab monovalent. A general note: In SPR one partner is held on a chip, and binding of the other changes the refractive index at the surface.

B1: Clone K IgG (antibody, V domains shown)
VH: QVQLVQSGAEVKKPGASVKVSCKASGYTFTNEGISWVRQAPGQGLEWMGWISAYTADTFYAQKLQGRVTMTTDTSTSTAYMELRSLRSDDTAVYYCARTRHDTSGLRFDYWGQGTLVTVSS
VL: DIQMTQSPSSVSASVGDRVTITCRASQGIDSWLAWYQQKPGKAPKLLIYAASSLQSGVPSRFSGSGSGTDFTLTISSLQPEDFATYYCQQVHSFPITFGGGTKVEIKR
B1: in the experiment with Human GDF15 Fc (human) [1], the dissociation constant (Kd) (usually the concentration at which binding is half-saturated) was 0.271 nM.

B2: Clone L IgG (antibody, V domains shown)
VH: QVQLVQSGAEVKKPGASVKVSCKASGYTFASYDIIWVRQAPGQGLEWMGWISALSGDTVYAQKLQGRVTMTTDTSTSTAYMELRSLRSDDTAVYYCARTRHDTSGIRFDYWGQGTLVTVSS
VL: DIQMTQSPSSVSASVGDRVTITCRASQGIDSWLAWYQQKPGKAPKLLIYAASSLQSGVPSRFSGSGSGTDFTLTISSLQPEDFATYYCQQVHSFPITFGGGTKVEIKR
In the experiment with Human GDF15 Fc (human) [1], B2 showed a Kd of 0.325 nM.

B3: Clone O IgG (antibody, V domains shown)
VH: QVQLVQSGAEVKKPGATVKVSCKASGYTFDSLGMSWVRQAPGQGLEWMGYISTYSGDTVYAQKLQGRVTMTTDTSTSTAYMELRSLRSDDTAVYYCARESGQQVSALDPWGQGTLVTVSS
VL: DIQMTQSPSSVSASVGDRVTITCRASQGISRWLAWYQQKPGKAPKLLIYAASSLQSGVPSRFSGSGSGTDFTLTISSLQPEDFATYYCQQGASFPLTFGGGTKVEIKR
Take B3: the equilibrium dissociation constant (Kd) with Human GDF15 Fc (human) [1] worked out at 0.379 nM.

B4: Clone P IgG (antibody, V domains shown)
VH: QVQLVQSGAEVKKPGATVKVSCKASGYTFDSYGIHWVRQAPGQGLEWMGWITAYSGDTVYAQKLQGRVTMTTDTSTSTAYMELRSLRSDDTAVYYCARESGQTSSALGPWGQGTLVTVSS
VL: DIQMTQSPSSVSASVGDRVTITCRASQGISRWLAWYQQKPGKAPKLLIYAASSLQSGVPSRFSGSGSGTDFTLTISSLQPEDFATYYCQQGASFPLTFGGGTKVEIKR
In the case of B4, the Kd with Human GDF15 Fc (human) [1] is 0.274 nM.

B5: Clone E Fab (Fab, V domains shown)
VH: QVQLVQSGAEVKKPGASVKVSCKASGYTFTSYGINWVRQAPGQGLEWMGWITAYSGDTNYAQKLQGRVTMTTDTSTSTAYMELRSLRSDDTAVYYCARGPGQYADVDVWGQGTMVTVSS
VL: DIQMTQSPSSVSASVGDRVTITCRASQGISSWLAWYQQKPGKAPKLLIYAASSLQSGVPSRFSGSGSGTDFTLTISSLQPEDFATYYCQQANSFPITFGGGTKVEIK
B5: the equilibrium dissociation constant (Kd) in the experiment with Human GDF15 Fc (human) [2] turned out to be 0.921 nM. In the experiment with Human GDF15 Fc (human) [3], the Kd was determined as 0.0331 nM; the koff – broadly, the first-order rate constant of dissociation – was determined as 8.71e-05 s⁻¹; the kon (as a rule, the second-order rate constant of association) was 2.63e+06 M⁻¹ s⁻¹.

B6: Clone J Fab (Fab, V domains shown)
VH: QVQLVQSGAEVKKPGASVKVSCKASGYTFTSYGINWVRQAPGQGLEWMGWIDAYSGSTNYAQKLQGRVTMTTDTSTSTAYMELRSLRSDDTAVYYCARGPGQYADVDVWGQGTMVTVSS
VL: DIQMTQSPSSVSASVGDRVTITCRASQGISSWLAWYQQKPGKAPKLLIYAASSLQSGVPSRFSGSGSGTDFTLTISSLQPEDFATYYCQQANSFPITFGGGTKVEIK
Regarding B6, in the experiment with Human GDF15 Fc (human) [2], the Kd came out at 1.28 nM. In the experiment with Human GDF15 Fc (human) [3], this molecule had a Kd of 0.0884 nM, an off-rate (koff) of 0.000404 s⁻¹ and an association rate constant (kon) of 4.57e+06 M⁻¹ s⁻¹.

B7: Clone O Fab (Fab, V domains shown)
VH: QVQLVQSGAEVKKPGATVKVSCKASGYTFDSLGMSWVRQAPGQGLEWMGYISTYSGDTVYAQKLQGRVTMTTDTSTSTAYMELRSLRSDDTAVYYCARESGQQVSALDPWGQGTLVTVSS
VL: DIQMTQSPSSVSASVGDRVTITCRASQGISRWLAWYQQKPGKAPKLLIYAASSLQSGVPSRFSGSGSGTDFTLTISSLQPEDFATYYCQQGASFPLTFGGGTKVEIK
B7 returned a Kd in the experiment with Human GDF15 Fc (human) [2] of 0.216 nM. Further, in the experiment with Human GDF15 Fc (human) [3], the Kd was 0.0341 nM, the koff was determined as 7.11e-05 s⁻¹ and the association rate constant (kon) turned out to be 2.08e+06 M⁻¹ s⁻¹.

B8: Clone E IgG (antibody, V domains shown)
VH: QVQLVQSGAEVKKPGASVKVSCKASGYTFTSYGINWVRQAPGQGLEWMGWITAYSGDTNYAQKLQGRVTMTTDTSTSTAYMELRSLRSDDTAVYYCARGPGQYADVDVWGQGTMVTVSS
VL: DIQMTQSPSSVSASVGDRVTITCRASQGISSWLAWYQQKPGKAPKLLIYAASSLQSGVPSRFSGSGSGTDFTLTISSLQPEDFATYYCQQANSFPITFGGGTKVEIKR
In the case of B8, the dissociation constant (Kd) with Human GDF15 Fc (human) [1] was 0.278 nM. This counts as sub-nanomolar.

B9: Clone I Fab (Fab, V domains shown)
VH: QVQLVQSGAEVKKPGASVKVSCKASGYTFTDEGINWVRQAPGQGLEWMGWITAYSGDTVYAQKLQGRVTMTTDTSTSTAYMELRSLRSDDTAVYYCARGPGQYADVDVWGQGTMVTVSS
VL: DIQMTQSPSSVSASVGDRVTITCRASQGISSWLAWYQQKPGKAPKLLIYAASSLQSGVPSRFSGSGSGTDFTLTISSLQPEDFATYYCQQANSFPITFGGGTKVEIK
Regarding B9, in the experiment with Human GDF15 Fc (human) [2], the Kd is 1.25 nM. Besides, in the experiment with Human GDF15 Fc (human) [3], the dissociation constant (Kd) worked out at 0.0672 nM, the koff is 0.000259 s⁻¹ and the on-rate (kon) worked out at 3.85e+06 M⁻¹ s⁻¹.

B10: Clone I IgG (antibody, V domains shown)
VH: QVQLVQSGAEVKKPGASVKVSCKASGYTFTDEGINWVRQAPGQGLEWMGWITAYSGDTVYAQKLQGRVTMTTDTSTSTAYMELRSLRSDDTAVYYCARGPGQYADVDVWGQGTMVTVSS
VL: DIQMTQSPSSVSASVGDRVTITCRASQGISSWLAWYQQKPGKAPKLLIYAASSLQSGVPSRFSGSGSGTDFTLTISSLQPEDFATYYCQQANSFPITFGGGTKVEIKR
The molecule B10 registered a Kd with Human GDF15 Fc (human) [1] of 0.262 nM.

B11: Clone P Fab (Fab, V domains shown)
VH: QVQLVQSGAEVKKPGATVKVSCKASGYTFDSYGIHWVRQAPGQGLEWMGWITAYSGDTVYAQKLQGRVTMTTDTSTSTAYMELRSLRSDDTAVYYCARESGQTSSALGPWGQGTLVTVSS
VL: DIQMTQSPSSVSASVGDRVTITCRASQGISRWLAWYQQKPGKAPKLLIYAASSLQSGVPSRFSGSGSGTDFTLTISSLQPEDFATYYCQQGASFPLTFGGGTKVEIK
In the experiment with Human GDF15 Fc (human) [2], B11 came in with a dissociation constant (Kd) of 3.68 nM. In the experiment with Human GDF15 Fc (human) [3], this molecule came in with a Kd of 0.126 nM, a koff of 0.0021 s⁻¹ and an on-rate (kon) of 1.66e+07 M⁻¹ s⁻¹.

B12: Clone K Fab (Fab, V domains shown)
VH: QVQLVQSGAEVKKPGASVKVSCKASGYTFTNEGISWVRQAPGQGLEWMGWISAYTADTFYAQKLQGRVTMTTDTSTSTAYMELRSLRSDDTAVYYCARTRHDTSGLRFDYWGQGTLVTVSS
VL: DIQMTQSPSSVSASVGDRVTITCRASQGIDSWLAWYQQKPGKAPKLLIYAASSLQSGVPSRFSGSGSGTDFTLTISSLQPEDFATYYCQQVHSFPITFGGGTKVEIK
As for B12, the dissociation constant Kd in the experiment with Human GDF15 Fc (human) [2] came out at 2.11 nM. In addition, in the experiment with Human GDF15 Fc (human) [3], the Kd amounted to 0.23 nM, the koff was 0.00112 s⁻¹ and the kon was 4.87e+06 M⁻¹ s⁻¹.

B13: Clone T Fab (Fab, V domains shown)
VH: QVQLVQSGAEVKKPGASVKVSCKASGYTFTSYGINWVRQAPGQGLEWMGWITAYSGDTNYAQKLQGRVTMTTDTSTSTAYMELRSLRSDDTAVYYCARGPGQYADVDVWGQGTMVTVSS
VL: DIQMTQSPSSVSASVGDRVTITCRASQGISSWLAWYQQKPGKAPKLLIYAASSLQSGVPSRFSGSGSGTDFTLTISSLQPEDFATYYCQQASQFPITFGGGTKVEIK
B13 yielded a Kd in the experiment with Human GDF15 Fc (human) [2] of 0.613 nM. In the experiment with Human GDF15 Fc (human) [3], this molecule yielded a dissociation constant Kd of 0.0411 nM, an off-rate (koff) of 4.52e-05 s⁻¹ and an on-rate constant (kon) of 1.1e+06 M⁻¹ s⁻¹.

B14: Clone L Fab (Fab, V domains shown)
VH: QVQLVQSGAEVKKPGASVKVSCKASGYTFASYDIIWVRQAPGQGLEWMGWISALSGDTVYAQKLQGRVTMTTDTSTSTAYMELRSLRSDDTAVYYCARTRHDTSGIRFDYWGQGTLVTVSS
VL: DIQMTQSPSSVSASVGDRVTITCRASQGIDSWLAWYQQKPGKAPKLLIYAASSLQSGVPSRFSGSGSGTDFTLTISSLQPEDFATYYCQQVHSFPITFGGGTKVEIK
With B14, the Kd with Human GDF15 Fc (human) [2] turned out to be 1.58 nM. In the experiment with Human GDF15 Fc (human) [3], the Kd amounted to 0.144 nM, the koff turned out to be 0.000576 s⁻¹ and the kon came out at 3.99e+06 M⁻¹ s⁻¹.

B15: Clone S Fab (Fab, V domains shown)
VH: QVQLVQSGAEVKKPGASVKVSCKASGYTFTSYGINWVRQAPGQGLEWMGWITAYSGDTNYAQKLQGRVTMTTDTSTSTAYMELRSLRSDDTAVYYCARGPGQYADVDVWGQGTMVTVSS
VL: DIQLTQSPSSVSASVGDRVTITCRASQGISPWLAWYQQKPGKAPKLLIYAASSLQSGVPSRFSGSGSGTDFTLTISSLQPEDFATYYCQQANSFPITFGGGTKVEIK
In the experiment with Human GDF15 Fc (human) [2], B15 showed a Kd of 0.48 nM. In the experiment with Human GDF15 Fc (human) [3], this molecule registered a Kd of 0.0369 nM, a dissociation rate constant (koff) of 4.93e-05 s⁻¹ and an on-rate (kon) of 1.34e+06 M⁻¹ s⁻¹.

B16: Clone J IgG (antibody, V domains shown)
VH: QVQLVQSGAEVKKPGASVKVSCKASGYTFTSYGINWVRQAPGQGLEWMGWIDAYSGSTNYAQKLQGRVTMTTDTSTSTAYMELRSLRSDDTAVYYCARGPGQYADVDVWGQGTMVTVSS
VL: DIQMTQSPSSVSASVGDRVTITCRASQGISSWLAWYQQKPGKAPKLLIYAASSLQSGVPSRFSGSGSGTDFTLTISSLQPEDFATYYCQQANSFPITFGGGTKVEIKR
In turn, B16 gave a Kd with Human GDF15 Fc (human) [1] of 0.276 nM.
